Consider 4 molecules from paper PMC10397247.

Assay in all cases: two-hybrid library CCmax;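 further: natural log of median RNA to DNA barcode read ratio; higher means stronger binding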
In one assay the target is T1, P2-AA-12HGe-D.
T1 chain: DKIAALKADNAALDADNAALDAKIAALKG

The next assay deals with T2, P2-AA-12HGe-R.
T2 chain: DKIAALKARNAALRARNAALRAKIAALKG
The following applies: mean of both orientations.

For a further assay, the target named is T3, P2-AA-12HGe-H.
T3 chain: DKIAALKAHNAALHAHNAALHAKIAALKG
The following applies: mean of both orientations.

Another assay deals with T4, P2-AA-12HGe-M.
T4 chain: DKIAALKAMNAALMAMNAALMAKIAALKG
The following applies: mean of both orientations.

A further assay deals with T5, P2-AA-12HGe-E.
T5 chain: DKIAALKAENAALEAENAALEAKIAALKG
Conditions: mean of both orientations.

Another assay has as its target T6, P2-AA-12HGe-T.
T6 chain: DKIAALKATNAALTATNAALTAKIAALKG
The following applies: mean of both orientations.

Another assay concerns the target T7, P2-AA-12HGe-A.
T7 chain: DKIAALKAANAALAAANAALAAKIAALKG
The following applies: mean of both orientations.

Another assay addresses T8, P2-AA.
T8 chain: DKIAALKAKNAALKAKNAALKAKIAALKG
The following applies: mean of both orientations.

The target in a further assay is T9, P2-AA-12HGe-Q.
T9 chain: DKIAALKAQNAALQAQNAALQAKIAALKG
The following applies: mean of both orientations.

The target in another assay is T10, P2-AA-12HGe-S.
T10 chain: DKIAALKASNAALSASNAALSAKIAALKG
The following applies: mean of both orientations.

Another assay deals with T11, P2-AA-12HGe-W.
T11 chain: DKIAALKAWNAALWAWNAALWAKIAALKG
The following applies: mean of both orientations.

The next assay has as its target T12, 4H380-AA.
T12 chain: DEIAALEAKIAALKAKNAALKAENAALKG
The following applies: mean of both orientations.

The target in a further assay is T13, 4H3595-AA.
T13 chain: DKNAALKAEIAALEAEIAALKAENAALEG
Conditions: mean of both orientations.

For the next assay, the target named is T14, 4H3969-AA.
T14 chain: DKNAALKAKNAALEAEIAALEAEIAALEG
The following applies: mean of both orientations.

For a further assay, the target named is T15, 4H3590-AA.
T15 chain: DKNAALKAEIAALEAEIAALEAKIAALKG
Conditions: mean of both orientations.

The target of a further assay is T16, 4H3094-AA.
T16 chain: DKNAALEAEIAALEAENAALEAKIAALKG
The following applies: mean of both orientations.

The next assay has as its target T17, O13-AA.
T17 chain: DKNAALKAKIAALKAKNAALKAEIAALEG
The following applies: mean of both orientations.

The target of the next assay is T18, 4H_BCR.
T18 chain: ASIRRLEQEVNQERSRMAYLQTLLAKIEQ
The following applies: mean of both orientations.

Another assay addresses T19, 4H324-AA.
T19 chain: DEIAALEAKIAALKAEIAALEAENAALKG
The following applies: mean of both orientations.

For another assay, the target named is T20, 4H4038-AA.
T20 chain: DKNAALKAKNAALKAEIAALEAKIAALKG
Conditions: mean of both orientations.

The next assay has as its target T21, 4H3449-AA.
T21 chain: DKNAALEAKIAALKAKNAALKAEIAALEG
Conditions: mean of both orientations.

For the next assay, the target named is T22, 4H3625-AA.
T22 chain: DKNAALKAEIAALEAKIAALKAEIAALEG
The following applies: mean of both orientations.

Another assay addresses T23, 4H464-AA.
T23 chain: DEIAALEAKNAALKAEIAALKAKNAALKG
The following applies: mean of both orientations.

The target in another assay is T24, 4H32-AA.
T24 chain: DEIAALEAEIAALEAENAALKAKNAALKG

For another assay, the target named is T25, 4H3629-AA.
T25 chain: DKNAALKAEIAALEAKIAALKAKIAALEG
The following applies: mean of both orientations.

The target in another assay is T26, 4H432-AA.
T26 chain: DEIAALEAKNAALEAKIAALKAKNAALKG
The following applies: mean of both orientations.

Another assay has as its target T27, 4H3915-AA.
T27 chain: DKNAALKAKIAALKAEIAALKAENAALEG
The following applies: mean of both orientations.

The target in another assay is T28, 4H3974-AA.
T28 chain: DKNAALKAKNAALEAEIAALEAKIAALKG
The following applies: mean of both orientations.

In another assay the target is T29, 4H451-AA.
T29 chain: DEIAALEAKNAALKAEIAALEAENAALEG
Conditions: mean of both orientations.

Another assay addresses T30, 4H341-AA.
T30 chain: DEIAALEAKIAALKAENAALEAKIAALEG
Conditions: mean of both orientations.

Another assay deals with T31, O11-AA.
T31 chain: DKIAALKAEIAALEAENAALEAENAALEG
Conditions: mean of both orientations.

A further assay deals with GCN2_T.
For the next assay, the target named is T32, 4H3777-AA.
T32 chain: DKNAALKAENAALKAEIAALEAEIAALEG
The following applies: mean of both orientations.

The target in the next assay is T33, 4H_APH.
T33 chain: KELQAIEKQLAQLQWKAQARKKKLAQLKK
The following applies: mean of both orientations.

The target of a further assay is T34, 4H3619-AA.
T34 chain: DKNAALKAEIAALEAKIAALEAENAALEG
Conditions: mean of both orientations.

Another assay concerns the target T35, 4H384-AA.
T35 chain: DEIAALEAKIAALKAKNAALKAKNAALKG

In another assay the target is T36, 4H446-AA.
T36 chain: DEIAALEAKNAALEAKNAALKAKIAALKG
The following applies: mean of both orientations.

The target of another assay is T37, O14-AA.
T37 chain: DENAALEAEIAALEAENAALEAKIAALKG
Conditions: mean of both orientations.

A further assay has as its target T38, 4H3939-AA.
T38 chain: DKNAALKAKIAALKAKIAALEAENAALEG
Conditions: mean of both orientations.

For the next assay, the target named is T39, 4H483-AA.
T39 chain: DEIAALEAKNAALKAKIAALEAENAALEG
Conditions: mean of both orientations.

Another assay addresses T40, 4H510-AA.
T40 chain: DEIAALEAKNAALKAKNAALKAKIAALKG
The following applies: mean of both orientations.

The target in another assay is 4H_GCN4.
Chain of 4H_GCN4 (chain, as listed by the source): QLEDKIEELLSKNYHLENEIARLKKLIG
The target of another assay is T41, 4H3129-AA.
T41 chain: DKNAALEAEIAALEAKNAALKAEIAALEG
Conditions: mean of both orientations.

The target in another assay is T42, 4H3587-AA.
T42 chain: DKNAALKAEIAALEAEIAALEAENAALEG

In the next assay the target is T43, 4H3782-AA.
T43 chain: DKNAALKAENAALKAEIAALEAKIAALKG
The following applies: mean of both orientations.

The next assay has as its target T44, 4H3049-AA.
T44 chain: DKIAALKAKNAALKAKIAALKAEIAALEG

The target in the next assay is T45, 4H337-AA.
T45 chain: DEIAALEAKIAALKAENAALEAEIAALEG

The target of a further assay is T46, 4H63-AA.
T46 chain: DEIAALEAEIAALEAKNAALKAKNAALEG
Conditions: mean of both orientations.

In another assay the target is T47, 4H3414-AA.
T47 chain: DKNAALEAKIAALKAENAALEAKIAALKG
The following applies: mean of both orientations.

The target in the next assay is T48, 4H43-AA.
T48 chain: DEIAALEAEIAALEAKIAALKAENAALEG
Conditions: mean of both orientations.

In a further assay the target is T49, 4H3905-AA.
T49 chain: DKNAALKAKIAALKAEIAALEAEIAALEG
The following applies: mean of both orientations.

Read-outs that look alike come from different tables or passages of the source.

In the case of DEIAALEASNAALSASNAALSAEIAALEG [P1-AA-12HGe-S], the interaction score is -1.82 in the assay with P2-AA-12HGe-D; 1 with P2-AA-12HGe-R; -1.82 in the assay with P2-AA-12HGe-H; -0.332 with P2-AA-12HGe-M; 0.07 with P2-AA-12HGe-E; -1.11 with P2-AA-12HGe-T. The interaction score was -0.678 in the assay with P2-AA-12HGe-A; 0.744 with P2-AA; 0.702 with P2-AA-12HGe-Q; -1.39 with P2-AA-12HGe-S; -1.58 in the assay with P2-AA-12HGe-W.
With DKIAALKAKNAALKAKIAALKAEIAALEG [4H3049-AA], the interaction score is -1.68 with 4H380-AA; -1.01 with 4H3595-AA; -0.09 with 4H3969-AA; 1.4 with 4H3590-AA; 1.63 with 4H3094-AA; -1.55 with O13-AA. Also, the interaction score with 4H_BCR is -2.02; with 4H324-AA, -0.645; with 4H4038-AA it was 1.1; in the assay with 4H3449-AA, -1.67; with 4H3625-AA, -0.0279; in the assay with 4H464-AA it was 0.452. The interaction score is 0.0606 in the assay with 4H32-AA; -0.842 in the assay with 4H3629-AA; -0.00195 in the assay with 4H432-AA; -1.52 with 4H3915-AA; 1.52 with 4H3974-AA; -1.18 with 4H451-AA. The interaction score with 4H341-AA was 0.355; with O11-AA, 0.334; with GCN2_T (mean of both orientations) it was -0.776; in the assay with 4H3777-AA, -0.0348; with 4H_APH, -1.8; with 4H3619-AA, -0.754. Also, the interaction score in the assay with 4H384-AA (mean of both orientations) was -1.42; with 4H446-AA it was -0.416; with O14-AA, 1.66; in the assay with 4H3939-AA, -0.638; with 4H483-AA it was -1.48; with 4H510-AA it was -1.55. The interaction score is -0.802 in the assay with 4H_GCN4; -1.06 in the assay with 4H3129-AA; -0.69 with 4H3587-AA; 1.57 with 4H3782-AA; -0.619 with 4H3049-AA; 1.59 with 4H337-AA (mean of both orientations). Besides, the interaction score in the assay with 4H63-AA is -1.15; with 4H3414-AA, -0.414; in the assay with 4H43-AA, 1.67.
DEIAALEAKIAALKAENAALEAEIAALEG [4H337-AA]: the interaction score is 0.707 in the assay with 4H3590-AA; 0.869 in the assay with O13-AA; -0.845 with 4H_BCR; 2.08 with 4H4038-AA; -0.713 with 4H3625-AA; -0.516 with 4H451-AA. Also, the interaction score with O11-AA was -0.88; with GCN2_T, -1.48; with 4H_APH, -1.22; with 4H384-AA, 1.88; in the assay with O14-AA, 1.85; with 4H510-AA, 1.23. Further, the interaction score was -1.01 with 4H_GCN4; -0.0231 in the assay with 4H3905-AA; -1.2 in the assay with 4H3587-AA (mean of both orientations); -0.119 with 4H337-AA; -0.783 in the assay with 4H43-AA.
With DEIAALEADNAALDADNAALDAEIAALEG [P1-AA-12HGe-D], the interaction score with P2-AA-12HGe-D (mean of both orientations) is -1.75; in the assay with P2-AA-12HGe-R it was 1.33; with P2-AA-12HGe-H, -1.41; in the assay with P2-AA-12HGe-M, -2.19; with P2-AA-12HGe-E, -1.55; with P2-AA-12HGe-T, -1.52. Also, the interaction score with P2-AA-12HGe-A is -2.7; with P2-AA it was 1.36; with P2-AA-12HGe-Q, -1.62; with P2-AA-12HGe-S, -1.99; in the assay with P2-AA-12HGe-W, -2.14.
